Assays:
人IL-23 (Bio IL-23) = molecular target: T1, 人IL-23 (Bio IL-23) (human, UniProt Q9NPF7 20-189; P29460 23-328, biotin-labelled (Bio IL-23); sites not stated); test: ELISA: Bio IL-23 at 1 μg/ml captured on Neutravidin, antibody in serial dilution
T1 construct: also called hIL-23
T1 sequence (looked up) 1: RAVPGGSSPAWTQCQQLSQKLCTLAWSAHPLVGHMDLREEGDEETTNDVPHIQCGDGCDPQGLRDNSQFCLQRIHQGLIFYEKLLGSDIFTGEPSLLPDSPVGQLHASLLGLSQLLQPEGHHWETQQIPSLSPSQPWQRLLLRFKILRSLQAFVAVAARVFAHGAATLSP
T1 sequence (looked up) 2: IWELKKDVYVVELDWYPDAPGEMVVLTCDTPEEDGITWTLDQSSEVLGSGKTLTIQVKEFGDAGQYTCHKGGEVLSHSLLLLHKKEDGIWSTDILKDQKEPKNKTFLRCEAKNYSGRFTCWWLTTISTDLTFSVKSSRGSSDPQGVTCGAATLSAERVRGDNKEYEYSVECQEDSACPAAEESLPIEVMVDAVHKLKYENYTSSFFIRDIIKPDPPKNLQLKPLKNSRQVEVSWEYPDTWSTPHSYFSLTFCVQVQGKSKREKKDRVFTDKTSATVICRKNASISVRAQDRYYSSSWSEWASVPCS

人IL-12 (Bio IL-12) = molecular target: T2, 人IL-12 (Bio IL-12) (human, UniProt P29459 23-219; P29460 23-328, biotin-labelled (Bio IL-12); sites not stated); test: ELISA: Bio IL-12 at 1 μg/ml captured on Neutravidin, antibody in serial dilution
T2 construct: the p35 subunit is supplied from general knowledge
T2 sequence (looked up) 1: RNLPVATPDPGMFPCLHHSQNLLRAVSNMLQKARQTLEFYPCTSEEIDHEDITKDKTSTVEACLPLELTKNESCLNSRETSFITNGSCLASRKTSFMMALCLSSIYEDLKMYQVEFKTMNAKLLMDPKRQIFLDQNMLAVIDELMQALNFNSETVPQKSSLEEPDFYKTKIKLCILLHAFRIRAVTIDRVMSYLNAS
T2 sequence (looked up) 2: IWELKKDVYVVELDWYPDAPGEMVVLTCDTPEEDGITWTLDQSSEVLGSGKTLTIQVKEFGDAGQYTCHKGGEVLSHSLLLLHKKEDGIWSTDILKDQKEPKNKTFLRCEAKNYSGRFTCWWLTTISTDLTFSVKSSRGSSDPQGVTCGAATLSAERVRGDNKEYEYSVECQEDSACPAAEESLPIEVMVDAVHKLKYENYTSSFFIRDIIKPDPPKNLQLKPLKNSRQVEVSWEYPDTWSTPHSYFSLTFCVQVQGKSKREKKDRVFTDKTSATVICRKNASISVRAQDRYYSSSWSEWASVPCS

binding result (人IL-23 (Bio IL-23)): binds | binding result (人IL-12 (Bio IL-12)): no binding
B1: 抗人IL-23P19单克隆抗体(第一抗体) (antibody, V domains shown)
VH: QEQLEESGGGLVKPGGTLTLTCKASGFDFTTYNYMCWVRQAPGKGLEWIACIYTTKTNTWYASWAKGRFTISKTSSTTVTLQMTSLTAADTATYFCARGGWDNLSLWGPGTLVTVSS
VL: AALTQTPASVSAAVGGTVTIKCQSSQSVYSNNYLAWYQQKPGQPPKVLIYAASTLASGVPSRFSGSGSGTQFTLTISGVQCDDAATYYCLGGYDDDAVFGGGTEVVVKG
notes: also called 抗人IL-23第一抗体; 包被抗体
